In patent US20090092971:

Molecular target: active RhoA, P61586
Sequence (P61586 1-190): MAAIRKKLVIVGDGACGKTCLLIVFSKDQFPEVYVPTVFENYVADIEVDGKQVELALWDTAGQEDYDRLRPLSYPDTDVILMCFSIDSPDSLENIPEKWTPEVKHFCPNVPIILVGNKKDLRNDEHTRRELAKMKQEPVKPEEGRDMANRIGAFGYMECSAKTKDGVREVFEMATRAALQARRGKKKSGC

B1: GEF-H1 (Rho guanine nucleotide exchange factor H1) (protein)
chain: MKEAKDARYTNGHLFTTISVSGMTMCYACNKSITAKEALICPTCNVTIHNRCKDTLANCTKVKQKQQKAALLKNNTALQSVSLRSKTTIRERPSSAIYPSDSFRQSLLGSRRGRSSLSLAKSVSTTNIAGHFNDESPLGLRRILSQSTDSLNMRNRTLSVESLIDEEVIYSELMSDFEMDEKDFAADSWSLAVDSSFLQQHKKEVMKQQDVIYELIQTELHHVRTLKIMTRLFRTGMLEELHLEPGVVQGLFPCVDELSDIHTRFLSQLLERRRQALCPGSTRNFVIHRLGDLLISQFSGPSAEQMCKTYSEFCSRHSKALKLYKELYARDKRFQQFIRKVTRPAVLKRHGVQECILLVTQRITKYPLLISRILQHSHGIEEERQDLTTALGLVKELLSNVDEGIYQLEKGARLQEIYNRMDPRAQTPVPGKGPFGREELLRRKLIHDGCLLWKTATGRFKDVLVLLMTDVLVFLQEKDQKYIFPTLDKPSVVSLQNLIVRDIANQEKGMFLISAAPPEMYEVHTASRDDRSTWIRVIQQSVRTCPSREDFPLIETEDEAYLRRIKMELQQKDRALVELLREKVGLFAEMTHFQAEEDGGSGMALPTLPRGLFRSESLESPRGERLLQDAIREVEGLKDLLVGPGVELLLTPREPALPLEPDSGGNTSPGVTANGEARTFNGSIELCRADSDSSQRDRNGNQLRSPQEEALQRLVNLYGLLHGLQAAVAQQDTLMEARFPEGPERREKLCRANSRDGEAGRAGAAPVAPEKQATELALLQRQHALLQEELRRCRRLGEERATEAGSLEARLRESEQARALLEREAEEARRQLAALGQTEPLPAEAPWARRPVDPRRRSLPAGDALYLSFNPPQPSRGTDRLDLPVTTRSVHRNFEDRERQELGSPEERLQDSSDPDTGSEEEGSSRLSPPHSPRDFTRMQDIPEETESRDGEAVASES
RhoA activity (active RhoA pulled down with GST-Rhotekin-RBD, western blot): the RhoA activity increased by at least 5 times
